Laboratory results published in US20170321196A1, “ANALYTICAL AND DIAGNOSTIC METHODS UTILIZING SHIGELLA FLEXNERI APYRASE” (priority 2014, published 2017).
Several values for one entry are separate records, joined by “and”; a condition that tells them apart may be missing. Equal entries are not always repeated. Entries after “also recorded” stand apart in the source; their conditions may differ.

What was measured:
rSFA = test: Inhibitor development: inhibition of rSFA; assay type: biochemical, Shigella flexneri
Method: After checking the rSFA inhibitory activity in buffer, it was verified with urine, where 10 μl were added with 80 μl of cell lysate reagent and 10 μmol/L of ATP. About 100 mM of MgSO4 and 1 mM of Na3VO4 were added in separate tubes and incubated for 10 min before measuring the light emission using firefly luciferase.

firefly luciferase = target: T1, firefly luciferase (Photinus pyralis, UniProt P08659); test: Inhibitor development: effect on luciferase; assay type: biochemical
T1 construct: purchased BioThema AB, Sweden ATP Kit SL
Method: After checking the rSFA inhibitory activity in buffer, it was verified with urine, where 10 μl were added with 80 μl of cell lysate reagent and 10 μmol/L of ATP. […]

[1] = HPLC analysis of nucleotide degradation: dTTP; assay type: biochemical; conditions: STA to TDP and TMP, rSFA to TMP
Method: (§1) To compare rSFA activity on nucleotides to that of STA, ATP, dATP, dTTP, dGTP and dCTP were incubated with the enzymes (same initial activity) for 5 min and 35 min and the resulting products were detected using high performance liquid chromatography (HPLC).
(§2) The dNTP Standard preparation was prepared to contain final concentration of 0.1 mM […]. Nucleosides ATP/dATP/dCTP/dGTP/dTTP were suspended in Tris-EDTA buffer and diluted 10 times with the mobile phase (70% acetonitrile, 30% ammonium acetate pH 5.35). The above-prepared nucleosides were individually incubated with equal amounts of rSFA and STA for 35 min at pH 7.75 and 5 μl of the mixture was injected into HPLC instrument (SeQuant ZIC®-pHILIC column, Merck Millipore) at a flow rate of 0.7 mL/min using a pump (Jasco PU-2089 Plus). Peaks were detected at 254 nm by UV-2075 Plus detector and the chromatographic separation was achieved using isocratic elution. Analysis was performed using Chrompass software, where each nucleotide/nucleoside was identified by comparison with retention time of the respective standards.

[2] = ATP degradation by apyrase in buffer, firefly luciferase bioluminescent assay; assay type: biochemical
[3] = Elimination of extracellular ATP in serum, bioluminescent assay; assay type: biochemical; parameters: ATP depletion rate: unit not given beside the values; conditions: for time after which no further ATP elimination: 10% serum, FIG. 8; for time to complete hydrolysis of ATP and its analogues: 100% crude serum, FIG. 6A
Method: (§3) Cuvettes contained 100 μL sample in a total volume of 1 mL containing ATP Reagent SL (BioThema AB, Sweden) in 0.07 mol/L Tris- EDTA Buffer and the reaction was started by injection of 10 μL 10 μmol/L ATP Standard. The initial apyrase activity was determined as described by Lundin and coworkers (Analytical Biochemistry 75, 611-620 (1976) and Methods in Enzymology vol 305, 346-370 (2000)) with some modifications. Bioluminescence was measured at every 10 s during 1 min, in the fully automatic 1251 Luminometer (LKB-Wallac, Turku, Finland). To this, 10 μl of 10 μmol/L ATP was added to determine the background ground luminescence. The temperature control was set to 25° C. and bioluminescence was measured from several cuvettes in parallel during 30 or 60 minutes and compared to residual ATP after various incubation times using rSFA and STA. This was repeated with rSFA and STA and a graph was plotted by keeping the ATP-degradation rate as internal control to determine the ATP-degradation efficiency of both of the enzyme sources.
(§4) Light emission from the firefly-luciferase reaction was measured at 25° C. in a 1251 Luminometer (LKB-Wallac; Finland) using the ATP Kit SL (BioThema AB, Sweden) according to the manufacture's instruction (in buffer experiment) or adding concentrated luciferase (in serum/urine experiments). Initially luciferase reaction follows first-order kinetics and the ATP Reagent SL in this kit produces light intensity proportional to the ATP concentration. A plot of the natural logarithm of the light intensity versus time yields a straight line with the slope representing the rate constant of the reaction. Starting concentration of STA, A6535, A6237 (Sigma-Aldrich) was adjusted similar to rSFA. BL-reaction was started automatically upon addition of 0.2 μmol/L ATP, and the light intensity was measured every 10 second for 10 minutes (in buffer experiment) or 30 minutes (in serum and urine experiments), in the reaction volume of 0.5 mL.

[4] = HPLC analysis of nucleotide degradation: dATP; assay type: biochemical
Method: as §1, §2

[5] = HPLC analysis of nucleotide degradation: dCTP; assay type: biochemical
Method: as §1, §2

[6] = Hydrolysis of ADP and ATP/ADP mixture in urine; assay type: biochemical; conditions: 10 μmol/L, FIG. 10
Method: as §4, with “BL-reaction was started automatically upon addition of 0.2 μmol/L ATP, and the light intensity was measured every 10 second for 10 minutes (in buffer experiment) or 30 minutes (in serum and urine experiments), in the reaction volume of 0.5 mL.” left out

[7] = ATP degradation by apyrase in buffer, firefly luciferase bioluminescent assay; assay type: biochemical; conditions: for time to eliminate ATP: enzymes diluted 10× in Tris-EDTA Buffer; for ATP depletion rate: No serum (Negative control)
Method: as §3, §4

[8] = HPLC analysis of nucleotide degradation: ATP; assay type: biochemical; conditions: for time to complete conversion of ATP: STA to ADP and AMP, rSFA to AMP
Method: as §1, §2

[9] = ATP elimination in urine, bioluminescent assay; assay type: biochemical; conditions: for time to complete ATP elimination: after 4 subsequent injections of 10 μL 10 μmol/L ATP
Method: as §4

[10] = Buffer optimization: rSFA activity after storage, bioluminescent ATP-elimination assay; assay type: physicochemical; conditions: stored in Buffer 3 about 10 months at +4° C.; compared with Buffer 1 and 2
Method: Equal concentration of rSFA was stored in Buffer 1(20 mM Tris, 1 mM EDTA, 1% BSA, 25 mM MgSO4, pH 7.5), Buffer 2 (20 mM Tris, 25 mM MgSO4, 2.5% BSA, pH 7.5) and Buffer 3 (20 mM HEPES, 500 mM NaCl, 25 mM MgSO4, pH 7.5) for about 10 months at 4° C. Bioluminescence activity assay was performed as described below to detect the activity of rSFA after storage.

[11] = SFA activity across pH and in EDTA; assay type: biochemical
[12] = SFA stability to freeze-thaw and refrigerator storage; assay type: physicochemical; conditions: crude form, without addition of stabilizers
Method: The rSFA samples were kept at 4° C., then frozen and freeze-thawed to check its stability. An effort was made to see if the rSFA could be used to prepare a reagent for the depletion of extraneous ATP in biological samples.

[13] = Undiluted serum (100% crude serum)

T1 sequence (P08659 whole entry): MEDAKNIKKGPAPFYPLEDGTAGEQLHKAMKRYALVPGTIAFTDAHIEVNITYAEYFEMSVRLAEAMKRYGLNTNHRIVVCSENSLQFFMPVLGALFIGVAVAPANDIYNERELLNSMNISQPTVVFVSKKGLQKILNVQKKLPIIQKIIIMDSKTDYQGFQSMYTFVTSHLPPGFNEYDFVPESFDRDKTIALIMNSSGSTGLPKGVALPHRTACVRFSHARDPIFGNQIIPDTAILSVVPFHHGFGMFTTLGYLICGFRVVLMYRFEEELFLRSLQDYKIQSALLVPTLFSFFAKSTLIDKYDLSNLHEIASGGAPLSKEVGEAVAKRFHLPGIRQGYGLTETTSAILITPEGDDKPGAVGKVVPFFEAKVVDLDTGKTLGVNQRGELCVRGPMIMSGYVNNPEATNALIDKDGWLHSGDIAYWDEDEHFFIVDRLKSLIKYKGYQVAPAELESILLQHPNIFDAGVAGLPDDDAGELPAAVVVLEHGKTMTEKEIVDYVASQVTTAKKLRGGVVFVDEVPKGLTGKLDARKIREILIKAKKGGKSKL

## [O]=[V]([O-])([O-])[O-] [ortho-vanadate]
rSFA; 1 mM ortho-vanadate (Na3VO4)
  inhibition of rSFA activity: completely inhibited
Firefly luciferase; 1 mM ortho-vanadate
  effect on luciferase activity: did not affect luciferase at all

## O=S(=O)([O-])[O-].[Mg+2] [MgSO4]
rSFA; 100 mM MgSO4
  inhibition of rSFA activity: showed inhibitory action
rSFA; magnesium at 50 mM
  inhibition of rSFA activity: completely inhibit
Firefly luciferase; 100 mM MgSO4
  effect on luciferase activity: affected the activity of luciferase
Firefly luciferase; magnesium at 50 mM
  effect on luciferase activity: decreased the activity of luciferase

B1: STA: Solanum tuberosum apyrase, commercially available potato apyrase from Sigma-Aldrich, SEQ ID NO: 9 (protein, listed as Solanum tuberosum)
chain: MLNQNSHFIFIILAIFLVLPLSLLSKNVNAQIPLRRHLLSHESEHYAVIFDAGSTGSRVHVFRFDEKLGLLPIGNNIEYFMATEPGLSSYAEDPKAAANSLEPLLDGAEGVVPQELQSETPLELGATAGLRMLKGDAAEKILQAVRNLVKNQSTFHSKDQWVTILDGTQEGSYMWAAINYLLGNLGKDYKSTTATIDLGGGSVQMAYAISNEQFAKAPQNEDGEPYVQQKHLMSKDYNLYVHSYLNYGQLAGRAEIFKASRNESNPCALEGCDGYYSYGGVDYKVKAPKKGSSWKRCRRLTRHALKINAKCNIEECTFNGVWNGGGGDGQKNIHASSFFYDIGAQVGIVDTKFPSALAKPIQYLNAAKVACQTNVADIKSIFPKTQDRNIPYLCMDLIYEYTLLVDGFGLNPHKEITVIHDVQYKNYLVGAAWPLGCAIDLVSSTTNKIRVASS
[1]
  time to conversion of dTTP: 35 min
[2]
  Remaining ATP activity after 91 min: 0.0228%
[3]; 10% Diluted serum
  ATP depletion rate: 2.429
[3]
  time after which no further ATP elimination: 6 min
  time to complete hydrolysis of ATP and its analogues: ~45 min
[3]; [13]
  ATP depletion rate: 0.5536
[4]; after 35 min of incubation
  dATP remaining: more than 25%
[5]; after 35 min
  portion of dCTP converted into CDP and CMP: only half
[6]
  change of activity with ADP or mixture of ADP and ATP: considerably decreased
[7]
  Initial activity: 4.12 Units/mg protein
  ATP depletion rate: 3.52
[7]; FIG. 4
  time to eliminate ATP: > 60 min
[7]; after 1 min
  Remaining ATP activity after 1 min: 1.1876%
[7]; after 17 min
  Remaining ATP activity after 17 min: 0.0367%
[7]; after one minute
  amount of ATP remaining lower in STA samples compared to rSFA (factor): ~2
[8]; 5 min incubation
  cleavage of ATP to ADP and AMP: only partially cleaved
[8]
  time to complete conversion of ATP: 35 min
[9]; FIG. 9
  time after which rate of action was hindered: 3 min
[9]
  time to complete ATP elimination: > 20 min

B2: rSFA: Recombinant Shigella flexneri apyrase with 6-His tag, amino-acid sequence SEQ ID NO: 4, expressed in E. coli BL21-A1 (protein, listed as Shigella flexneri)
chain: DIHMKTKNFLLFCIATNMIFIPSANALKAEGFLTQQTSPDSLSILPPPPAENSVVFQADKAHYEFGRSLRDANRVRLASEDAYYENFGLAFSDAYGMDISRENTPILYQLLTQVLQDSHDYAVRNAKEYYKRVRPFVIYKDATCTPDKDEKMAITGSYPSGHASFGWAVALILAEINPQRKAEILRRGYEFGESRVICGAHWQSDVEAGRLMGASVVAVLHNTPEFTKSLSEAKKEFEELNTPTNELTPHHHHHHRTMF
modifications: 6-His tag
[10]
  activity after storage: particularly good activity; also recorded: very good activity
[1]
  time to conversion of dTTP: less than 5 min
[3]; 10% Diluted serum
  ATP depletion rate: 1.774
[3]
  time after which no further ATP elimination: > 30 min
  time to complete hydrolysis of ATP and its analogues: ~17 min
[3]; [13]
  ATP depletion rate: 1.816
[4]
  time to full conversion of dATP into dAMP: less than 5 min
[5]
  time to complete conversion of dCTP into CMP: less than 5 min
[6]
  change of activity with ADP or mixture of ADP and ATP: no substantial difference; also recorded: not affected
[7]; FIG. 4
  rate constant of ATP elimination: 3.87 min⁻¹
  time to eliminate ATP: ~10 min and ~15 min
[7]
  ATP depletion rate: 3.98
[7]; in buffer, FIG. 7
  time after which saturated and ineffective in further reducing the ATP concentration: > 300 s
[8]
  time to complete conversion of ATP: less than 5 min
[9]
  time to complete ATP elimination: less than 3 min

B3: SFA: Apyrase derived from Shigella flexneri, recombinant or non-recombinant; native sequence SEQ ID NO: 10 (protein, listed as Shigella flexneri)
chain: MKTKNFLLFCIATNMIFIPSANALKAEGFLTQQTSPDSLSILPPPPAENSVVFQADKAHYEFGRSLRDANRVRLASEDAYYENFGLAFSDAYGMDISRENTPILYQLLTQVLQDSHDYAVRNAKEYYKRVRPFVIYKDATCTPDKDEKMAITGSYPSGHASFGWAVALILAEINPQRKAEILRRGYEFGESRVICGAHWQSDVEAGRLMGASVVAVLHNTPEFTKSLSEAKKEFEELNTPTNELTP
[11]
  activity in high concentrations of EDTA: remains to be active
  pH range of very good activity: 7.0-7.5
[12]
  stability: tolerates freeze-thaw-cycles and storage in solution at refrigerator temperatures
